T1: ECF01_3473
T1 chain: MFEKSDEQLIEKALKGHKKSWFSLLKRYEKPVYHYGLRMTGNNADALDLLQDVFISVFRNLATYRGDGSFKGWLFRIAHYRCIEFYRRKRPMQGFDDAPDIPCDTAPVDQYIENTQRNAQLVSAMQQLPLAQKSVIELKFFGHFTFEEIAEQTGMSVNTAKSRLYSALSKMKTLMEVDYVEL

T2: ECF02_2817
T2 chain: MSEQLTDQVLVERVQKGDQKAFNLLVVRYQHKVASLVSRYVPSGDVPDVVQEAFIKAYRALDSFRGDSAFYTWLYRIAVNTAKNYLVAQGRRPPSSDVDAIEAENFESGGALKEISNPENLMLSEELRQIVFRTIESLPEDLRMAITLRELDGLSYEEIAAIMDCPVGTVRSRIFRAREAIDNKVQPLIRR

T3: ECF03_1198
T3 chain: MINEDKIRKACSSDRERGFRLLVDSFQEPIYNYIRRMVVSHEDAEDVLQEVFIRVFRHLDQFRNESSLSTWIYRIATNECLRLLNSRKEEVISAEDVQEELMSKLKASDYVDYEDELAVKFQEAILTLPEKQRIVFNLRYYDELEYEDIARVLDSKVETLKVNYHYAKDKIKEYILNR

T4: ECF11_3726
T4 chain: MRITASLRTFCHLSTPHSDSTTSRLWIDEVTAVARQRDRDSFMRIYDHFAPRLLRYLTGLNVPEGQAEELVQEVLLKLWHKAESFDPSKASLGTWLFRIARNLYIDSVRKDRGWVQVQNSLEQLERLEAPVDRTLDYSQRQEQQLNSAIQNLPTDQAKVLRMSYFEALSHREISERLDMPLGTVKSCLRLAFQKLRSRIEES

T5: ECF14_3200
T5 chain: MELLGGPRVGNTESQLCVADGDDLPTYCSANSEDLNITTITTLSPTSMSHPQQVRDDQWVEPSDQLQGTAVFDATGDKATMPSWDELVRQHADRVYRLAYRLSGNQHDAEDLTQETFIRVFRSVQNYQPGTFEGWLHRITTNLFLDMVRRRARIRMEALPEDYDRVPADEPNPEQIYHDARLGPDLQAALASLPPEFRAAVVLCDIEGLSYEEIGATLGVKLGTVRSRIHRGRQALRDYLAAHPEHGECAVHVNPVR

T6: ECF15_524
T6 chain: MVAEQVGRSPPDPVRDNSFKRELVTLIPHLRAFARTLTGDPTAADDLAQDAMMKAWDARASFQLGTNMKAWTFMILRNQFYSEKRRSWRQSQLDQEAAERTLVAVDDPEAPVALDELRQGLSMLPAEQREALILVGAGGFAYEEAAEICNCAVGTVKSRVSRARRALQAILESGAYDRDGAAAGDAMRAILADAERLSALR

T7: ECF16_3622
T7 chain: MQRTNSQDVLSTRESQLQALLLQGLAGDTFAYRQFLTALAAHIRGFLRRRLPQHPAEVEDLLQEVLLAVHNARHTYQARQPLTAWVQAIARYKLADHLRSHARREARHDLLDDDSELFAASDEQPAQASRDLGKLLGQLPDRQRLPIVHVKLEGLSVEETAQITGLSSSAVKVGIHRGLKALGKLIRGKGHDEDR

T8: ECF16_973
T8 chain: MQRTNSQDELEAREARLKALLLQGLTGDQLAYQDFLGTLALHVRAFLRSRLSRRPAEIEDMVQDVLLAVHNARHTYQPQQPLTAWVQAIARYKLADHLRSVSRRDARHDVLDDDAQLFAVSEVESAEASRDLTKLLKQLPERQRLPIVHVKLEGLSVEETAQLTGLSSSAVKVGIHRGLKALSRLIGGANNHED

T9: ECF25_1645
T9 chain: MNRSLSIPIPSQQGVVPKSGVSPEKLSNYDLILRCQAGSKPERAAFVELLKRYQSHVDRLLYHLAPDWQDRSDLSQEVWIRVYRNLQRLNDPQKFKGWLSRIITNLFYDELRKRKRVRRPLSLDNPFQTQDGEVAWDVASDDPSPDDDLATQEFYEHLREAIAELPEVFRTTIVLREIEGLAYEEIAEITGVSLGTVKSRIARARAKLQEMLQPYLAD

T10: ECF27_4265
T10 chain: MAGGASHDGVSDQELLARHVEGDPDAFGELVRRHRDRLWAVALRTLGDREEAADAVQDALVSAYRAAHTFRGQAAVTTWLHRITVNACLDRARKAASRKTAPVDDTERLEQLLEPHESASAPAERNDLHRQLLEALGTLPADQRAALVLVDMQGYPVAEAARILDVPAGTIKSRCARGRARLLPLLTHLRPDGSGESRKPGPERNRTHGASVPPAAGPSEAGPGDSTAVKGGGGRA

T11: ECF31_34
T11 chain: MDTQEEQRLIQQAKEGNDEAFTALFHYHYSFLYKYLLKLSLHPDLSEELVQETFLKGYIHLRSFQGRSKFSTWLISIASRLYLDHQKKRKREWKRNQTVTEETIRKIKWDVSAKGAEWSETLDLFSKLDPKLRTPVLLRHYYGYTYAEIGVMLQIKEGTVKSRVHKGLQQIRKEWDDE

T12: ECF37_2513
T12 chain: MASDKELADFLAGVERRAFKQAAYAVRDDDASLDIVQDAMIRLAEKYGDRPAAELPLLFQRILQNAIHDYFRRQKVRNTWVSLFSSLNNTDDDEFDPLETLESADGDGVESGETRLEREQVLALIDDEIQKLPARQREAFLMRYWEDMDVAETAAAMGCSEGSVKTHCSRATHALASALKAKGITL

T13: ECF38_1322
T13 chain: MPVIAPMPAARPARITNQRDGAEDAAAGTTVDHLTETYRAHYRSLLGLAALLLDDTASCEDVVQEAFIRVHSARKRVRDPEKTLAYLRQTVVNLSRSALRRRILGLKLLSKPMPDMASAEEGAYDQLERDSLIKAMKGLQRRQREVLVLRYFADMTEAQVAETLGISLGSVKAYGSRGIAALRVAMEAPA

B1: AS33_423 (protein)
chain: MMAMSNTMPDPREPGDVEALLPWYAAGTLNARDARRVADALDRDPALARQYAVILEEYASTIELNESLGAPSSRAMQKLFAAIDAEPARAPGAGQGLGARFAGFFAGLSPKALAWSASVAGLALLLQAGLIGALLTWPHAAPVQTAAYQPQREVARAPASSPAPATVSPPAAAMADRAADAGKSTPPMVMAERSGGPVVRSLAPQSGPRVLVKFAPEARASEIAALLDQYNAVVVDSSRGGLFRLQFGTQSLSKQDQETLIGRLQKEPVVSVVLSAP
B2: AS37_2513 (protein)
chain: MSSAPATKEEVDFALKVRRALDERAASLPDATTDRLAAARRAALARKKPDAAIVLVPALAGSAGTLELRPPGEPRKSLARRLARAWPLALLLAGLIGIAYWEDMQRTAELADIDAAMLSDNLPLTAYLDHGFNAYLSHTH
B3: AS35_3582 (protein)
chain: MNPQKHSASVAEEQMLAHFRAHAPQQPAPALDQAILAAARRQAAHVEPARSWWRRWLEASRRPRWQAAFASLLGVALVLGLVSHNVLDDAERQARPEVAFSDVPLRDGVAGAAAAKRAMRAPAAPAPLSGEMSEPPALLASYASSGEAPQLMAEAAPPAPAALADRPPAQAAQQAKVQAALAGDFVAQARGKAVAVKPEVLDEALGAVLALREQGKTEQAATQLAELQKRFPGENLVERLERLATIAASARKRP
B4: AS38_1322 (protein)
chain: MSDGNDARPDARDGHDPGSDARDGHDPGSHARDGHDPGAGPFDGHGPGSDAGDGDDAGPDARDGHGAPAGPAGREQRKHPHDTHDMHDTHDTHAGKGTVNHGPAAQGPDAPGADGPATDEAALRAMMQRAVREMEPSDGTLEHLRRAVPARRARKRQALVGAAAAALFLGTAVPALVHVSNATGAGADPSVAGNASQAQGGASQGKDPAGGQSGVAGTGDTPEDRDKADPKETPGGKEPGAATGAPPSGVPSASSPADVPACAPGSLGPAVASSAEPDSTGVVYGSFRVTNVSSDGCTVTGPGTVVTASLGAAEATRIGTARHAAGDAAAGLPDPSLETASLALAPGAAYEVQFAWVPSETCPTTGGTTGGGSGGPSPDPSPTADTTAAGGTSAGGGEAGPTTQLITEDGPAEGSVSVTYTPEGGSGSATATVSNACAGTVYWTGLLADSGSGA

Tests used:
ECF01_3473 = molecular target: T1, ECF01_3473
ECF02_2817 = molecular target: T2, ECF02_2817
ECF03_1198 = molecular target: T3, ECF03_1198
ECF11_3726 = molecular target: T4, ECF11_3726
ECF14_3200 = molecular target: T5, ECF14_3200
ECF15_524 = molecular target: T6, ECF15_524
ECF16_3622 = molecular target: T7, ECF16_3622
ECF16_973 = molecular target: T8, ECF16_973
ECF25_1645 = molecular target: T9, ECF25_1645
ECF27_4265 = molecular target: T10, ECF27_4265
ECF31_34 = molecular target: T11, ECF31_34
ECF37_2513 = molecular target: T12, ECF37_2513
ECF38_1322 = molecular target: T13, ECF38_1322

Binder	fold repression (ECF01_3473)	fold repression (ECF02_2817)	fold repression (ECF03_1198)	fold repression (ECF11_3726)	fold repression (ECF14_3200)	fold repression (ECF15_524)	fold repression (ECF16_3622)	fold repression (ECF16_973)	fold repression (ECF25_1645)	fold repression (ECF27_1331)	fold repression (ECF27_4265)	fold repression (ECF31_34)	fold repression (ECF37_2513)	fold repression (ECF38_1322)
B1	3.36	5.47	15	29.3	12.2	9.15	35.1	14.6	3.68	8.68	5.38	8.35	10	5.66
B2	6.84	4.08	4.01	11.6	11.4	4.06	5.36	3.54	3.92	6.45	2.71	3.08	13.5	2.73
B3	5.93	6.36	6.26	18.8	11.7	5.37	6.44	3.39	3.79	7.23	2.28	5.2	8.97	3.42
B4	4.19	4.35	5.72	11.2	8.3	4.95	4.56	4.09	3.94	5.61	2.33	4.78	6.38	54.2
